In PMC10110952:

Tests used:
[1] = molecular target: streptokinase (Streptococcus pyogenes) (UniProt P10520); assay: binding saturation; conditions: cited from earlier work
[2] = molecular target: PAM, plasminogen-binding group A Streptococcus (GAS) M-protein (S. pyogenes) (UniProt P49054); assay: SPR; PAM amine-coupled to a CM-5 chip (250 RU); hPg variants injected at 0.175-20 nM (up to 800 nM hPg [D219N]), multicycle kinetics, 180 s association, 300 s dissociation; HBS-EP+ (10 mM Na-Hepes/150 mM NaCl, 3 mM EDTA/0.05% polysorbate-20, pH 7.4), 25°C, Biacore X100; 1:1 Langmuir model
[3] = molecular target: PAM, plasminogen-binding group A Streptococcus (GAS) M-protein (S. pyogenes) (UniProt P49054)
hPg [D^413N] (human) = assay: SPR; each hPg variant amine-coupled to a CM-5 chip (~1200 RU); SK injected at 0.625-100 nM, multicycle kinetics, 90 s association, 120 s dissociation; HBS-EP+/50 μM NPGB, 25°C, Biacore X100; 1:1 Langmuir model
[4] = molecular target: wild-type (WT) Glu^1-hPg (human plasminogen) (human); assay: as above
[5] = molecular target: hPg [D^139,413,518N] (human); assay: as above
hPg [D^518N] (human) = assay: as above
hPg [D^219N] (human) = assay: as above
hPg [K^708A] (human) = assay: as above
hPg [D^139N] (human) = assay: as above

Chain of UniProt P49054 (P49054 30-384): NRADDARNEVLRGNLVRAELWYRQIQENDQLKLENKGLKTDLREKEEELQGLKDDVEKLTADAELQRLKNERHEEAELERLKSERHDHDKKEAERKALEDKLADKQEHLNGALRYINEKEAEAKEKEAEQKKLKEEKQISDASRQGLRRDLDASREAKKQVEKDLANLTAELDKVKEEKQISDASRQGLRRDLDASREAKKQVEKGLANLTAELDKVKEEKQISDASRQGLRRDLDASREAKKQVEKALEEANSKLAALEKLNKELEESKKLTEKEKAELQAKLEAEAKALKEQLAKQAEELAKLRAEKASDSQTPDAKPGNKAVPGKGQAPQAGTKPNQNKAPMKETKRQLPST
Chain of UniProt P10520 (P10520 27-440): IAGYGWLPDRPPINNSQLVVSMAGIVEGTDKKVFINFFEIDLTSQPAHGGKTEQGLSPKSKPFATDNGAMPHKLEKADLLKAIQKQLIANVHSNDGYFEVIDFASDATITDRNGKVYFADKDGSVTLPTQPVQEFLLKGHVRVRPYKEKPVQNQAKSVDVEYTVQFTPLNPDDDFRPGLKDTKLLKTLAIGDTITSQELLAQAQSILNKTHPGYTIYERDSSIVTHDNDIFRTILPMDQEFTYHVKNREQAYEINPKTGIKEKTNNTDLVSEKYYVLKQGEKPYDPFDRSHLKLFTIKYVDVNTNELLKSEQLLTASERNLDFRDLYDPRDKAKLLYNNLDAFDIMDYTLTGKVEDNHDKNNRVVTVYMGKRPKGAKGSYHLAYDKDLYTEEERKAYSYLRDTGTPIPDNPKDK

Substance: Glu1-plasminogen (from UniProt P00747)
- Kd [1]: 0.5 nM

Substance: hPg [D^139,413,518N] (natural protein)
- Kd [2]: 0.7 nM
- koff [2]: 0.0017 s⁻¹
- kon [2]: 2.51e+06 M⁻¹ s⁻¹

Substance: hPg [D^139N] (natural protein)
- Kd [2]: 4 nM
- koff [2]: 0.0016 s⁻¹
- kon [2]: 410000 M⁻¹ s⁻¹
- rate of SK-mediated activation of hPg to hPm (S2251 hydrolysis), 250 nM PAM against 0 nM PAM [3]: 4 fold

Substance: hPg [D^413N] (natural protein)
- Kd [2]: 0.7 nM
- koff [2]: 0.00094 s⁻¹
- kon [2]: 1.34e+06 M⁻¹ s⁻¹

Substance: hPg [D^518N] (natural protein)
- Kd [2]: 6.7 nM
- koff [2]: 0.0024 s⁻¹
- kon [2]: 360000 M⁻¹ s⁻¹

Substance: hPg [K^708A] (natural protein)
- Kd [2]: 1.2 nM
- koff [2]: 0.0012 s⁻¹
- kon [2]: 970000 M⁻¹ s⁻¹

Substance: mini-plasminogen mini-hPg (lacking K1-K4) (from UniProt P00747)
- Kd [1]: 0.5 nM

Substance: streptokinase (SK) (natural protein)
- Kd (hPg [D^413N] (human)): 0.26 nM
- koff (hPg [D^413N] (human)): 0.000302 s⁻¹
- kon (hPg [D^413N] (human)): 1.22e+06 M⁻¹ s⁻¹
- Kd [4]: 0.29 nM
- koff [4]: 0.000405 s⁻¹
- kon [4]: 1.39e+06 M⁻¹ s⁻¹
- Kd [5]: 2.1 nM
- koff [5]: 0.000449 s⁻¹
- kon [5]: 206000 M⁻¹ s⁻¹
- Kd (hPg [D^518N] (human)): 0.27 nM
- koff (hPg [D^518N] (human)): 0.00034 s⁻¹
- kon (hPg [D^518N] (human)): 1.29e+06 M⁻¹ s⁻¹
- Kd (hPg [D^219N] (human)): 0.3 nM
- koff (hPg [D^219N] (human)): 0.000466 s⁻¹
- kon (hPg [D^219N] (human)): 1.55e+06 M⁻¹ s⁻¹
- Kd (hPg [K^708A] (human)): 0.21 nM
- koff (hPg [K^708A] (human)): 0.000282 s⁻¹
- kon (hPg [K^708A] (human)): 1.36e+06 M⁻¹ s⁻¹
- Kd (hPg [D^139N] (human)): 0.28 nM
- koff (hPg [D^139N] (human)): 0.000302 s⁻¹
- kon (hPg [D^139N] (human)): 1.13e+06 M⁻¹ s⁻¹

Substance: wild-type (WT) Glu^1-hPg (human plasminogen) (natural protein)
- Kd [2]: 5.4 nM
- koff [2]: 0.0013 s⁻¹
- kon [2]: 240000 M⁻¹ s⁻¹
- rate of SK-mediated activation of hPg to hPm (S2251 hydrolysis), 250 nM PAM against 0 nM PAM [3]: 4 fold
